Measurements: the DeepSol protein solubility set

Assay: soluble on expression in E. coli; label from the status in PepcDB or PDB records

Soluble on expression in E. coli, soluble:
AHHHHHHGSKYDVVVVGSGVAGPIVARDVAKAGFSVLLVDKKPAIGTPKQCAEGINVNVFKEFDIPYDKRFINREIYGARIYSPSGYTAELRYDKVSGVILERKVFDKMLAYYAAKAGADVWARTEVIDLLRKEGKIMGVKAKHEGELVEIEAKIIVAADGVESTVARLAGINTYAPPHEFDSAYEYEMIIEGYDPDLIHLWFGNEIAPRGYVWVFPKDEDRANVGIGINSDNEKTAKYYLDKWLKENNIPTKKILEINVGLVPVGGFVRELVKENVAVVGDAARQVNPVHGGGMYEAMKAANILAKWIVKALEEENLELLKNYTKEWWEVEGPKMERLLKLRRAMEKLTDEDIDVFVQLLGGTDLEKLAGGNYFEVVKALMKHPKVLMSKRRLEILKALL
MVASHSFEASILAYVLATELKRKGIEINPEHSALIALFHDAGETLLGDLPKWATSRINKRDAEVEAFDELGIGKELFLELKDLNTNEAKVAKLSDRLSTY
MATQINQKFGSKYKSNRKDETPMFEVRNGKSVIKNSGNHEATVNRTLDFHMTKLFQWEEQSDAIESSYVCALCHENGEKRELFGPYYATHNPIKYWPSFLAKKPTAKKPTKIELWFHGSCVLWAPNVHLHGNQLTNLDNQIDIFWSQTCIVCRKTGAAISVQNKKNTFIHYPCAKNKGYKLDEHALLCNS
MHHHHHHMKEVVSSVYKEILVKLGLTEDRIETLEMKGGIIEDEFDGIRYVRFKDSAGKLRRGTVVIDEEYVIPGFPHIKRIINLRSGIRRIFKRGEFYVEEKVDGYNVRVVMYKGKMLGITRGGFICPFTTERIPDFVPQEFFKDNPNLILVGEMAGPESPYLVEGPPYVKEDIQFFLFDVQEIKTGRSLPVEERLKIAEEYGINHVEVFGKYTKDDVDELYQLIERLSKEGREGIIMKSPDMKKIVKYVTPYANINDIKIGARVFYELPPGYFTSRISRLAFYLAEKRIKGEEFERVAKELGSALLQPFVESIFDVEQEEDIHELFKVRVKRIETAYKMVTHFEKLGLKIEIVDIEEIKDGWRITFKRLYPDATNEIRELIGGKAFVD
SGGRRSSWIKNWTLWKHFKDYFPIHLIKTQDLDPSHNYIFGFHPHGIMAVGAFGNFSVNYSDFKDLFPGFTSYLHVLPLWFWCPVFREYVMSVGLVSVSKKSVSYMVSKEGGGNISVIVLGGAKESLDAHPGKFTLFIRQRKGFVKIALTHGASLVPVVSFGENELFKQTDNPEGSWIRTVQNKLQKIMGFALPLFHARGVFQYNFGLMTYRKAIHTVVGRPIPVRQTLNPTQEQIEELHQTYMEELRKLFEEHKGKYGIPEHETLVLK
MVRNRFIRKMKKNLFKSNHLSYLKSKWKVKITGQIKMDFDNLLNLEEQYYQEGFLEGQNENIKQSFLEGKQYGLQVGFQRFTLLGQMEGLCDVIESYGLHSPTLEKNIHTIRTLMKGLKMNNDDESVMEFERVLIKLKNKFRTILITLHRLVKDKRTPTVTFEVFEDVSRAIAGEIRGFVENEDIAKNKTKQNQAQSW
MATVAELKAVLKDTLEKKGVLGHLKARIRAEVFNALDDDREPRPSLSHENLLINELIREYLEFNKYKYTASVLIAESGQPVVPLDRQFLIHELNAFEESKDNTIPLLYGILAHFLRGTKDGIQNAFLKGPSLQPSDPSLGRQPSRRKPMDDHLRKEEQKSTNIEDLHVSQAVNR
SLTTLKTMTRVQLGAMGEALAVDYLTSMGLRILNRNWRCRYGELDVIACDAATRTVVFVEVKTRTGDGYGGLAHAVTERKVRRLRRLAGLWLADQEERWAAVRIDVIGVRVGPKNSGRTPELTHLQGIG
MSLERIRDLTSVQGVRQNSLIGYGLVVGLDGTGDQTTQTPFTTQTLNNMLSQLGITVPTGTNMQLKNVAAVMVTASLPPFGRQGQTIDVVVSSMGNAKSLRGGTLLMTPLKGVDSQVYALAQGNILVGGAGASAGGSSVQVNQLNGGRITNGAVIERELPSQFGVGNTLNLQLNDEDFSMAQQIADTINRVRGYGSATALDARTIQVRVPSGNSSQVRFLADIQNMQVNVTPQDAKVVINSRTGSVVMNREVTLDSCAIAQGNLSVTVNRQANVSQPDTPFGGGQTVVTPQTQIDLRQSGGSLQSVRSSASLNNVVRALNALGATPMDLMSILQSMQSAGCLRAKLEIIEGHHHHHH

Soluble on expression in E. coli, not soluble:
MVFFNRNKIMNKDSTQTWGLKRDITPCFGARLVQEGHRLHFLADRAGFTGSFSEVQTLQLDEAFPHFVAHLELMLLSCELNPRYAHCVTLYRNGLTGEADTLGSHGYVYIAILNRHGFNRHLRVILEHHHHHH
MPEMADVMQTQAGDAGAFRHFDLSRVPTPCFVVDEVAIERNLKILRDISDRSGAHVLSALKAFSMFTLAPLVRQYLGGTCASGIYEARLGREEYGGEVATFCAGYKEQDIDEILSLSNHIIFNSPAQKDRFLSRAQAAGVQVGLRINPEHSEGEIAKYDPCAPCSRLGTPVSLLTPETLKGVDGLHMHTLCEQGFEPLLRTWAAVEPKLAPYLPGLKWLNFGGGHHITRADYDRDALIDFLKSLRARHGLDVYLEPGEAVALDAGILVGEILDLPSNGMDLAITDISATCHMPDVIEAPYRPALMDEADSGHTYRLGGPSCLAGDVIGDYTWDQPLTIGQRFAFLDQAHYSMVKTNTFNGVPLPTIALWNSKTDALRIVRQFDYSDFKDRLS
MGSDKIHHHHHHMKMSWNHQYTNYGSIADDNGDEEKAENSEGAAAEKVEKQHDDDGVVVHEETDGVASSRSSHHDKQKPGETKKSGDGKMDDDDIITTARSSSRRICGSAASSSDSETADDAPLLPDEGPSHAVRLEMPGDKPASPHDRFPKTPLKTL
MKQSKIIVAGIGPGSEQDITPAVLAAVREADVVVGYKYYFRFIRDFVRPDAECIDTGMKRERARAEQAFEYAEQGKTVCVISSGDAGIYGMTPLIYEMKRERQSNVEIIALPGI
MGSDKIHHHHHHMIKIKRGLDLPISGAPEQRIEAARPVRSVALIGFDYHGMKPTMAVQVGDRVKLGQVLFTDKKNPSVSYTAPGAGVVSAIHRGEKRVLQSVVIDLDGDEQLEFARYPADKLATLSAEQVRDNLLQSGLWTALRTRPFSKVPDPESSPSSIFVTAIDTQPLAADPQVVIAEQGEAFQAGLTVLGRLARVFLCKAEGVSLPGEALSGVTAQAFSGPHPAGLPGTHIHFLDPVGAGKSVWNLNYQDVIAIGKLFTTGQLWTERVIALAGPVVEKPRLVRTRLGANLDELAAGQLQPGNNRLISGSVLGGRTAHGAYAYLGRYHLQLSCLKEGDQREFLHYLRAGVEKHSLLNVFVSRLLGGKRFAFTTSTNGSPRAMVPVGNYEAVMPLDILPTQLLRYLIVGDTEMAQKLGALELDEEDLALCSYVCAGKYEYGPILRDNLARIEQEG
MSASPLQITEKSPEMSQTPPKDENNELEFGIPTKRSRSGRPKKICAFSSFKCYEERDIEFFIHQVSDNQIIWDRRNSLNFDGNLVHATFDKIEICCQFLARKNGENASRLWTELASEYKREKARIEQLPSGIYSEEFEIRFPFMQQMWFLEIEASELKEADSNSLEETIVNFARQKSINDAPSPSSSLSAPIEHLNSSINRLIAVIDKKSEDTTKRQIPAKYSDIVEHLIGFLDKTPRERQMEVKCKIYNFLDTIN
MGSDKIHHHHHHMNLSRVGKHGTGMWNYSKNIADMLHESGFLDSIICSKDHVEYFSNRYKDPKVDIIITPEIVSNTMKVSKFRPLIWLSYSYFLGCKLVLSKKKKDVALLSTTHHSIPFFKNQFITIHDLRPAFYPDSKLQEIYFSHYLPRKVKELRGVFTVSETVKNEIEEHMGVARSDIQVVYNSVDPSLRPDGTDNSEQATIKNTFLMVGASWKHKNAHSFLKNFLAYHKDNYSAVIVCGQTDYFDELKSLVATLGLENNVTFKHHISEQELSSLYKTSFALVYPSLSEGFGIPPIEAMSLSLPVIVSDIPVFKEILGEAAVYVDPNVRESWEHAVDTLKVSRENVIDTGLQRVNLYSYERCKDMLMLALNNINEKSR
MKPTKARLRNHVITLKNSVEKEIRAKKTKAIRAHIESEWLKIDPEFEKLHRYFSSLRIRQNVKNELVDLLEENSLEIWSFYRDTDARDFETYKKGFLEKLKYNSIKGLAKVEAVYDQEIQEVRETYNAIIANVERVPAKQGVAYLEELGINVDVFKEEEAQLPMIAVDKSKLRLPSETADSK
MRQRTIVCPLIQNDGCYLLCKMADNRGVFPGQWALSGGGVEPGERIEEALRREIREELGEQLILSDITPWTFRDDIRIKTYADGRQEEIYMIYLIFDCVSANRDICINDEFQDYAWVKPEELALYDLNVATRHTLALKGLL
MSSVLDVTKPDFDVEAFVVKLLREKSLDGLVKEEEEMVSAVRRLDSDVHQIVYENYNKFLTATNTVRKIQDEFTQLDSEMKSLSRSMSTISTLIGNLDGVLGEKRDDILQLGSSYKVVNSLKHIFDLPHVLRSEFDERNYGEVLRMFKLAEESLSQYKDVPTVQLVLQKSKKIYDMTENQLMDQLRNPASGAELVSEAVDLLLTIGRDEDEVQKVLLTCSEQSLRVDLKELSANHSDVLDLVDKASESFIPNLTLIATTHDRLFEDKREDLITVLKTEMNSLHALVSKVFLSSSDAKDCSIVVRALDRYFRKISTCRYVIPGLDFLPLTIELINAVSKHEIDLSLTRIKEELKNGLNEVRKALINEEKDLSALASKIEQVFVHQVKTALANLLLFTASDVTFANLPPDEFRQSFSFNAHERLLVQAFHRFSELADEYESGAGEIRFVDPRVHLVFAVALQHLSNKSAVYLLNLCREQFSLSPDDGLTDITVVMSEVKTRAQKLVRCYAEKTGLSMGETLIKGCAMLVQPAATPSAVRASVRRLVEEMNTCDSELTLLLGGDSKPKDSRVSRRPITTALDAARDSLWCERIDFHLQIHFNRASIITVIVKVVLKIFIESIRLQTYSKFGVEQVQVDCYYLQRCLAALVSDEVVVNSMVDQALSSALKRCQDPVLVHPSRLAQLCEQPPANRPSSQASSLGY
MSELFSNDNIFLNVNVNSQNEAIEKAGKALVDSGAVTDAYIQAMKDREQVVSTFMGNGLAIPHGTDEAKTNVIHSGLTLLQIPEGVDWDGEVVKVVVGIAGKDGEHLDLLSKIAITFSEEENVDRIVQAKSAEEIKQVFEEADA
MAHHHHHHMQTNYNEIRNLFNYYIREYFYQKSKGSYFVHFKKPGILFMSLKCYKRKKMYYPCIYDWYFDNLNNVKKNKDIFQYKNEYNTKNIYSHKICTEKENLGKNNSYVETDNIYLNKSEENLQNIYKSSNLYYNINPIYLSKICLYNLNEYHILYSNNYYDAFTQYYYSLISYKMDVHNMKIFPNLKILISHIKNISNIINDEVIKNAYIYLIKQRNIMNEEYLKNVFRNIYTTMLHNSSLYLFVDNHDQFIMILKIIKTDDIKSMFESAIPYPYYLIVDENINIYNLQSFNIYINSILNQRMQYNYPYNEKEKGSILNHYNNDKMYMTYNNNINQSKDIKIEKQTEQNEKGFNSMLDTDKGVYEKNIIKDKNDKVYFFKFIKIFDMKPNYRFKQKK
MTVLEAVLEIQAITGSRLLSMVPGPARPPGSCWDPTQCTRTWLLSHTPRRRWISGLPRASCRLGEEPPPLPYCDQAYGEELSIRHRETWAWLSRTDTAWPGAPGVKQARILGELLLV
MGSDKIHHHHHHMLGDLLTTFFEVARQGSITTAARQLGVSQPTVTARIRQLEDVYGVELFYRRASRVDLSDVGVALMPVVEQLMQQESNADYLLRNAGNLRFGNLRIGATGPYYILRSVAAFRQRYPAVEVSIEIGNSQQMIEALLEYRIDAAVSSHAVDDSRLARIRLASDPMVLVVHPEHPFARMPHIDIARLAECHLLVREHGSMTRQATEAALAACGQELPRHMVIGSREAIYEAIRQNIGASVVPAGEVPRDPSLRIVPFAQRPPVIHEYLYCLESRRHTRLVGALLECVESLAPHQQAQAA
